# Measurements taken from patent US20240076689A1, “VIRAL VECTORS AND NUCLEIC ACIDS FOR REGULATED GENE THERAPY” (Boehringer Ingelheim International GmbH, priority 2020, published 2024).
# Residue numbers refer to the chain shown, from its start.
# B1: catalytically inactive K19 switch: control plasmid harboring a catalytically inactive, non-cleaving K19 switch (SEQ ID No. 45) (nucleic acid)
# chain: GGCGCGTCCTGGATTCGTGGTAAAACATACCAGATTTCGATCTGGAGAGGTGAAGAATACGACCACCTACTACATCCAGCTGATGAGTCCCAAATAGGACGAGACGCGCT
# modifications: the letters are possibly those of the target site
# B2: K19: Tet-responsive aptazyme: tetracycline aptamer plus hammerhead ribozyme N79 (Beilstein et al. 2015), SEQ ID NO:9/10; tested in active-switch plasmids (nucleic acid)
# chain 1: B1 chain with G103A
# chain 2: GGCGCGUCCUGGAUUCGUGGUAAAACAUACCAGAUUUCGAUCUGGAGAGGUGAAGAAUACGACCACCUACUACAUCCAGCUGAUGAGUCCCAAAUAGGACGAAACGCGCU
# modifications: chemistry not fully specified; one strand in two spellings; the letters are possibly those of the target site
# Assays:
# [1] = Tet plasma concentration in the mIL-12 time course study; conditions: female, C57Bl/6, mouse, in vivo
# [2] = test system: IL-12 and IFNγ plasma levels, body weight, liver enzymes; assay: Dose-finding study to determine PK and safety of Tet-switch-controlled IL-12 (FIG. 18); conditions: 30 mg/kg i.p. twice daily for 5 consecutive days
# [3] = four 100 mg/kg Tet doses in 8 h intervals
# [4] = test system: eGFP expression in HEK293 cells; assay: Tet-dependent eGFP expression from K19 constructs in transfected HEK293 cells; conditions: HEK293, independent of Tet
# [5] = test system: eGFP and sNLuc expression in HEK293 cells; assay: K19 riboswitch kinetics in HEK293 cells (qPCR, fluorescence, Western blot, sNLuc)
molecule,measurement,setting,value
"CN(C)[C@@H]1C(O)=C(C(N)=O)C(=O)[C@@]2(O)C(O)=C3C(=O)c4c(O)cccc4[C@@](C)(O)[C@H]3C[C@@H]12 [Tet, tetracycline]",concentration at 8 h,[1]; 10 mg/kg,100 nM
same,concentration at 8 h,[1]; 30 mg/kg,750 nM
same,tolerability of Tet (in words),[2],well tolerated
same,other signs of toxicity,[3],no other signs of toxicity were observed
B1,"steady eGFP expression level, of constitutive signal",[4],about 90%
B2,onset of eGFP expression induction on the mRNA level after Tet addition,"[5]; HEK293, 50 μM Tet",15 min
same,onset of increase in direct eGFP fluorescence signal after Tet addition,"[5]; HEK293, 50 μM Tet",two
same,time to full induction on the mRNA level,"[5]; HEK293, 50 μM Tet",four
same,reversibility upon Tet retraction (in words),[5]; HEK293 previously grown in presence of Tet,relative decrease in sNLuc expression was observed
same,Tet-induced sNLuc increase detected after addition,[5]; HEK293 supernatant,2 h
same,time to saturation of sNLuc increase,[5]; HEK293 supernatant,4 to 8 h
